Where no end group is shown, it is not given here.
How the values were obtained:
[1] = biological target: T1, purified human fibrinogen (Homo sapiens, UniProt P02675+P02679); assay: Copolymerisation of peptide dendrimers with purified human fibrinogen, clotting time on KC4 Delta coagulation analyser; type: biochemical; details: for activity of mixtures of peptide conjugate and peptide dendrimer in copolymerising with fibrinogen: conjugate 2 mg/ml mixed with Peptide Dendrimer No. 3 or 4 at 0.025-0.5 mg/ml
T1 sequence (P02679 27-437 isoform P02679-2 limits assumed): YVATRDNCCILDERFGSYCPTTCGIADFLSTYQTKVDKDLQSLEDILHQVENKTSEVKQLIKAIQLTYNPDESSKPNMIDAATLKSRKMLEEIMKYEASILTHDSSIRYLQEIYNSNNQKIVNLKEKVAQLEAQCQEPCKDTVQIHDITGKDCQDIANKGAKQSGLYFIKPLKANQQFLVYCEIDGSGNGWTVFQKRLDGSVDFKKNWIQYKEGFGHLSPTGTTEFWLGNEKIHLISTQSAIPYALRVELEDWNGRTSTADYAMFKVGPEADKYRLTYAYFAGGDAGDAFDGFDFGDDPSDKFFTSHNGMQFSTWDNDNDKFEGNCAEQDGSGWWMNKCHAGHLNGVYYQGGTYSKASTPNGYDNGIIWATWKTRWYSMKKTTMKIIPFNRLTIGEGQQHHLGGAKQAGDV
T1 sequence (P02675 31-491): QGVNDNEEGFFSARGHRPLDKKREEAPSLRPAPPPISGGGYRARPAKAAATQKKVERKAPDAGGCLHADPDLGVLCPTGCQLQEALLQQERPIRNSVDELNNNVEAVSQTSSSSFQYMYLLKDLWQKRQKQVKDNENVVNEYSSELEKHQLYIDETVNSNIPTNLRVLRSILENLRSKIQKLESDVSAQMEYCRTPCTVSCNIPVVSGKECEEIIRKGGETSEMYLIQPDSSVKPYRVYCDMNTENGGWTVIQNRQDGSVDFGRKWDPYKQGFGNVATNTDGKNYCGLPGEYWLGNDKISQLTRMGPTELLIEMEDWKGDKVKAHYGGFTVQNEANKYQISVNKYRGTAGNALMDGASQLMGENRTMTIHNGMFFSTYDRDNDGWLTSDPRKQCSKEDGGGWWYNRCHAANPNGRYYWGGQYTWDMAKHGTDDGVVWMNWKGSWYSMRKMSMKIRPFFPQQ
T1 sequence (P02671 20-629 partner limits assumed): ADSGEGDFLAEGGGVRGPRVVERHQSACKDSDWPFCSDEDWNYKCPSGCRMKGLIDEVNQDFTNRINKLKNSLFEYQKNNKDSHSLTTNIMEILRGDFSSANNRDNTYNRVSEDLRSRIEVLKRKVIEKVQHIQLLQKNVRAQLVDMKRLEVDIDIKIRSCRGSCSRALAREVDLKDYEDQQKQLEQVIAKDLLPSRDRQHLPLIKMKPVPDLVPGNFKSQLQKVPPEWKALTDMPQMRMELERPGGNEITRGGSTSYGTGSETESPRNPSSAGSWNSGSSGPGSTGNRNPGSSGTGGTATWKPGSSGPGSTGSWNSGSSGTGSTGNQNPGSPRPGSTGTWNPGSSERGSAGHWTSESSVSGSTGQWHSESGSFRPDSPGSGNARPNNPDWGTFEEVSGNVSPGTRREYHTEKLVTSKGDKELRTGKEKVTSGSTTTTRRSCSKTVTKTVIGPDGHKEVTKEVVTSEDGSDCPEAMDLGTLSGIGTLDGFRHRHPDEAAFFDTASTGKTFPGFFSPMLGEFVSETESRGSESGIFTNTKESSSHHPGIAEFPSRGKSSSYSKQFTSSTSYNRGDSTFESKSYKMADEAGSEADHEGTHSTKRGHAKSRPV
Method: The ability of Peptide Dendrimer No. 12 to polymerise fibrinogen was assessed. 30 μl of dendrimer in solution, at concentration ranging from 0.005-2 mg/ml, was added to 100 μl purified human fibrinogen at 3 mg/ml (the level of fibrinogen found in the blood). Polymerisation of fibrinogen was analysed using a Sigma Amelung KC4 Delta coagulation analyser.
The ability of Peptide Dendrimer Nos. 4, 5, 10, 11, and 12 to copolymerise with fibrinogen was assessed using the same method described in Example 2. The concentration of each dendrimer was varied from 0.005-0.5 mg/ml.
The ability of the dendrimers to copolymerise with fibrinogen was assessed using the same method described in Example 2, for a concentration of each dendrimer ranging from 0.005-0.5 mg/ml.
Peptide Conjugate No. 1 or 2 (2 mg/ml) was mixed with Peptide Dendrimer No. 3 or 4, and fibrinogen, and the ability of the mixtures to copolymerise with fibrinogen was assessed using the same method described in Example 2, for a concentration of each dendrimer ranging from 0.025-0.5 mg/ml.

[2] = biological target: T2, fibrinogen in human plasma (Homo sapiens, UniProt P02675+P02679); assay: Polymerisation of fibrinogen in human plasma by peptide dendrimers; type: biochemical; details: 30 μL dendrimer 0.25 mg/ml in 100 μL human plasma, 37° C.
T2 construct: from tissue; host or cells: human plasma
T2 sequence (P02679 27-437 isoform P02679-2 limits assumed): T1 sequence (P02679 27-437 isoform P02679-2 limits assumed)
T2 sequence (P02675 31-491): T1 sequence (P02675 31-491)
T2 sequence (P02671 20-629 partner limits assumed): T1 sequence (P02671 20-629 partner limits assumed)
Method: 30 μL of each dendrimer (at a concentration of 0.25 mg/ml) was added to 100 μL human plasma at 37° C., and polymerisation of fibrinogen was determined using a Sigma Amelung KC4 Delta coagulation analyzer.

Substance | activity of mixtures of peptide conjugate and peptide dendrimer in copolymerising with fibrinogen [1] | ability to copolymerise with fibrinogen ([1]; dendrimer 0.005-0.5 mg/ml, fibrinogen 3 mg/ml) | ability to polymerise fibrinogen in human plasma [2]
Peptide Conjugate No. 1: two GPRP fibrinogen-binding peptides each attached by a linker to a lysine residue, second attached by amino-terminal end and amidated (peptide 2 GPRP-NH2; also: each GPRP attached by a linker to a lysine residue, second attached by amino-terminal end) | not active |  | 
Peptide Conjugate No. 2: GHRPY peptide and reverse sequence YPRHG (amidated), each attached by a linker to a lysine residue (peptide 2 YPRHG-NH2; also: each peptide attached by a linker to a lysine residue) | synergistic and increased activity |  | 
Peptide Dendrimer No. 9: three-branch dendrimer, two GPRPFPA peptides and one APFPRPG attached by its amino-terminal end, carboxy-terminal amide (chain 2 APFPRPG-NH2; not fully specified; also: three-branch dendrimer: two GPRPFPA and one APFPRPG attached by amino-terminal end; listed as Homo sapiens) |  | very active in copolymerising with fibrinogen | not able to polymerise fibrinogen in human plasma
